Target: CCR5 expressed on the cell surface (CEM.NKR-CCR5 cells; stimulated CD4+ T cells; CEM 5.25.EGFP.luc.M7 cells) (human) (UniProt P51681)
Test: cell-based or functional assay

Q: For “RANTES (from UniProt P13501 24-91) (ligand)”, which Antibody concentrations inhibiting HIV, 50% inhibition is on record?
A: 5.8 ng/mL

Q: And the Antibody concentrations inhibiting HIV, 70% inhibition?
A: 14.7 ng/mL

— US20100111995A1
